Results published in article PMC9352680, “A comprehensive thermodynamic model for RNA binding by the Saccharomyces cerevisiae Pumilio protein PUF4”.
Substitutions are numbered along the chain they refer to. In names and notes the source's numbering stands.

Biological target: T1, PUF4 RNA-binding domain (Saccharomyces cerevisiae, UniProt P25339 537-888)
T1 sequence: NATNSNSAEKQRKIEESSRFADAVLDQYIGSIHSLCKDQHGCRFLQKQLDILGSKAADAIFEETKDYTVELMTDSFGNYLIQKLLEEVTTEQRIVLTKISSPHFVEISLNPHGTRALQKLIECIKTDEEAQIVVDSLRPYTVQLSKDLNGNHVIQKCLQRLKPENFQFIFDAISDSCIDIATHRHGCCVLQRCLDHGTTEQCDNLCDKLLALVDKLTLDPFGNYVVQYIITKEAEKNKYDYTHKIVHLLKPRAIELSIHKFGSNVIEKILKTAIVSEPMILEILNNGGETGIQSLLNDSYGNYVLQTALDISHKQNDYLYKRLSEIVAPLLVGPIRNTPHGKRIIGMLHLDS
Assay: Mg; RNA-MaP; 20 mM Na-HEPES pH 7.4, 30 mM KOAc, 0.75 mM MgCl2, 0.1% Tween-20, 5% glycerol, 0.1 mg/mL BSA, 2 mM DTT; 25 C; 0.0125-409.6 nM protein
Settings: tags: N-His6-TEV cleaved; C-SNAP kept, Cy3B-labelled; label: tethered on chip by stalled RNA polymerase

B1: Ib_S1_P5E.1_K5.1_C5.1_H5.1_[A4T]_A5.1_F5.1_[T8A]_T5.1 (ssRNA)
RNA: UCUCUUUGUUUUAAUAUCUCUU
Kd: 73.4 nM

B2: Ib_S1_P5E.1_K5.1_C5.1_H5.1_[G2A]_A5.1_F5.1_[T9A]_T5.1 (ssRNA)
RNA: UCUCUUUAUAUUAUAAUCUCUU
Kd: 124 nM

B3: Ib_S1_P5E.1_K5.1_C5.1_H5.1_[G2A]_A5.1_F5.1_[T9C]_T5.1 (ssRNA)
RNA: UCUCUUUAUAUUAUCAUCUCUU
Kd: 641 nM

B4: Ib_S1_P5E.1_K5.1_C5.1_H5.1_[T1C]_A5.1_F5.1_[T9A]_T5.1 (ssRNA)
RNA: UCUCUUCGUAUUAUAAUCUCUU
Kd: 691 nM

B5: Id_ii_S2_P3E.3_K3.2_C3.2_[C-2T]_H3.2_A3.1_F3.1_T3.2_[T9A] (ssRNA)
RNA: UUUGAUUAAUAUGAUAUCGUUCUUUCUUUUAUAUAUAAAUUCUUUCUCGAUAUCAUAUUAAUCUUU
Kd: 925 nM

B6: Id_ii_S2_P3E.3_K3.2_C3.2_[C-2A]_[T-1A]_H3.2_A3.1_F3.1_T3.2_[T9G]_[A10C] (ssRNA)
RNA: B5 RNA with U28A, U29A, A38G, A39C
Kd: 701 nM

B7: Id_ii_S2_P3E.3_K3.2_C3.2_[C-2A]_[T-1G]_H3.2_A3.1_F3.1_T3.2_[A10T] (ssRNA)
RNA: B5 RNA with U28A, U29G, A38U, A39U
Kd: 407 nM

B8: Id_ii_S2_P3E.3_K3.2_C3.2_[C-2A]_[T-1G]_H3.2_A3.1_F3.1_T3.2_[T9A]_[A10T] (ssRNA)
RNA: B5 RNA with U28A, U29G, A39U
Kd: 199 nM

B9: Id_ii_S2_P3E.3_K3.2_C3.2_H3.2_A3.1_F3.1_T3.2_[T9A]_[A10C] (ssRNA)
RNA: B5 RNA with U28C, A39C
Kd: 112 nM

B10: Id_ii_S2_P3E.3_K3.2_C3.2_[C-2A]_[T-1C]_H3.2_A3.1_F3.1_T3.2_[T9C]_[A10T] (ssRNA)
RNA: B5 RNA with U28A, U29C, A38C, A39U
Kd: 103 nM

B11: Id_ii_S2_P3E.3_K3.2_C3.2_H3.2_A3.1_F3.1_T3.2_[T9C] (ssRNA)
RNA: B5 RNA with U28C, A38C
Kd: 108 nM

B12: Id_ii_S2_P3E.3_K3.2_C3.2_[T-1A]_H3.2_A3.1_F3.1_T3.2_[T9A]_[A10C] (ssRNA)
RNA: B5 RNA with U28C, U29A, A39C
Kd: 218 nM

B13: Id_ii_S2_P3E.3_K3.2_C3.2_[T-1A]_H3.2_A3.1_F3.1_T3.2_[T9A]_[A10G] (ssRNA)
RNA: B5 RNA with U28C, U29A, A39G
Kd: 1090 nM

B14: Id_ii_S2_P3E.3_K3.2_C3.2_[C-2A]_H3.2_A3.1_F3.1_T3.2_[T9C]_[A10C] (ssRNA)
RNA: B5 RNA with U28A, A38C, A39C
Kd: 322 nM

B15: Id_ii_S2_P3E.3_K3.2_C3.2_[T-1C]_H3.2_A3.1_F3.1_T3.2_[T9A]_[A10C] (ssRNA)
RNA: B5 RNA with U28C, U29C, A39C
Kd: 122 nM

B16: Id_ii_S2_P3E.3_K3.2_C3.2_[T-1C]_H3.2_A3.1_F3.1_T3.2_[T9G]_[A10T] (ssRNA)
RNA: B5 RNA with U28C, U29C, A38G, A39U
Kd: 718 nM

B17: Id_ii_S2_P3E.3_K3.2_C3.2_[T-1G]_H3.2_A3.1_F3.1_T3.2_[T9A]_[A10G] (ssRNA)
RNA: B5 RNA with U28C, U29G, A39G
Kd: 573 nM

B18: Id_ii_S2_P3E.3_K3.2_C3.2_[C-2A]_[T-1A]_H3.2_A3.1_F3.1_T3.2_[A10T] (ssRNA)
RNA: B5 RNA with U28A, U29A, A38U, A39U
Kd: 720 nM

B19: Id_ii_S2_P3E.3_K3.2_C3.2_[T-1G]_H3.2_A3.1_F3.1_T3.2 (ssRNA)
RNA: B5 RNA with U28C, U29G, A38U
Kd: 160 nM

B20: Id_ii_S2_P3E.3_K3.2_C3.2_[C-2A]_H3.2_A3.1_F3.1_T3.2_[T9A]_[A10T] (ssRNA)
RNA: B5 RNA with U28A, A39U
Kd: 531 nM

B21: Id_ii_S2_P3E.3_K3.2_C3.2_[T-1C]_H3.2_A3.1_F3.1_T3.2_[T9A]_[A10G] (ssRNA)
RNA: B5 RNA with U28C, U29C, A39G
Kd: 739 nM

B22: Id_ii_S2_P3E.3_K3.2_C3.2_[T-1A]_H3.2_A3.1_F3.1_T3.2_[T9G]_[A10T] (ssRNA)
RNA: B5 RNA with U28C, U29A, A38G, A39U
Kd: 447 nM

B23: Id_ii_S2_P3E.3_K3.2_C3.2_[T-1C]_H3.2_A3.1_F3.1_T3.2 (ssRNA)
RNA: B5 RNA with U28C, U29C, A38U
Kd: 42.2 nM

B24: Id_ii_S2_P3E.3_K3.2_C3.2_[C-2A]_[T-1C]_H3.2_A3.1_F3.1_T3.2_[T9C]_[A10C] (ssRNA)
RNA: B5 RNA with U28A, U29C, A38C, A39C
Kd: 245 nM

B25: Id_ii_S2_P3E.3_K3.2_C3.2_[C-2A]_[T-1A]_H3.2_A3.1_F3.1_T3.2_[T9A]_[A10G] (ssRNA)
RNA: B5 RNA with U28A, U29A, A39G
Kd: 1010 nM

B26: Id_ii_S2_P3E.3_K3.2_C3.2_[C-2A]_[T-1C]_H3.2_A3.1_F3.1_T3.2_[T9G]_[A10C] (ssRNA)
RNA: B5 RNA with U28A, U29C, A38G, A39C
Kd: 1590 nM

B27: Id_ii_S2_P3E.3_K3.2_C3.2_[T-1C]_H3.2_A3.1_F3.1_T3.2_[T9C]_[A10C] (ssRNA)
RNA: B5 RNA with U28C, U29C, A38C, A39C
Kd: 245 nM

B28: Id_ii_S2_P3E.3_K3.2_C3.2_H3.2_A3.1_F3.1_T3.2_[T9C]_[A10G] (ssRNA)
RNA: B5 RNA with U28C, A38C, A39G
Kd: 292 nM

B29: Id_ii_S2_P3E.3_K3.2_C3.2_[C-2T]_H3.2_A3.1_F3.1_T3.2_[A10C] (ssRNA)
RNA: B5 RNA with A38U, A39C
Kd: 130 nM

B30: Id_ii_S2_P3E.3_K3.2_C3.2_[T-1C]_H3.2_A3.1_F3.1_T3.2_[T9C] (ssRNA)
RNA: B5 RNA with U28C, U29C, A38C
Kd: 84.9 nM

B31: Id_ii_S2_P3E.3_K3.2_C3.2_[C-2A]_[T-1C]_H3.2_A3.1_F3.1_T3.2_[A10C] (ssRNA)
RNA: B5 RNA with U28A, U29C, A38U, A39C
Kd: 183 nM

B32: Id_ii_S2_P3E.3_K3.2_C3.2_[C-2A]_[T-1G]_H3.2_A3.1_F3.1_T3.2_[T9A] (ssRNA)
RNA: B5 RNA with U28A, U29G
Kd: 809 nM

B33: Id_ii_S2_P3E.3_K3.2_C3.2_H3.2_A3.1_F3.1_T3.2_[T9A]_[A10T] (ssRNA)
RNA: B5 RNA with U28C, A39U
Kd: 121 nM

B34: Id_ii_S2_P3E.3_K3.2_C3.2_[C-2A]_H3.2_A3.1_F3.1_T3.2_[T9A] (ssRNA)
RNA: B5 RNA with U28A
Kd: 693 nM

B35: Id_ii_S2_P3E.3_K3.2_C3.2_[T-1G]_H3.2_A3.1_F3.1_T3.2_[T9A] (ssRNA)
RNA: B5 RNA with U28C, U29G
Kd: 190 nM

B36: Id_ii_S2_P3E.3_K3.2_C3.2_[C-2T]_H3.2_A3.1_F3.1_T3.2_[A10T] (ssRNA)
RNA: B5 RNA with A38U, A39U
Kd: 78.5 nM

B37: Id_ii_S2_P3E.3_K3.2_C3.2_[T-1A]_H3.2_A3.1_F3.1_T3.2_[T9C]_[A10C] (ssRNA)
RNA: B5 RNA with U28C, U29A, A38C, A39C
Kd: 177 nM

B38: Id_ii_S2_P3E.3_K3.2_C3.2_H3.2_A3.1_F3.1_T3.2_[T9C]_[A10C] (ssRNA)
RNA: B5 RNA with U28C, A38C, A39C
Kd: 115 nM

B39: Id_ii_S2_P3E.3_K3.2_C3.2_[T-1G]_H3.2_A3.1_F3.1_T3.2_[T9G]_[A10C] (ssRNA)
RNA: B5 RNA with U28C, U29G, A38G, A39C
Kd: 108 nM

B40: Id_ii_S2_P3E.3_K3.2_C3.2_[C-2A]_[T-1C]_H3.2_A3.1_F3.1_T3.2_[T9C]_[A10G] (ssRNA)
RNA: B5 RNA with U28A, U29C, A38C, A39G
Kd: > 2300 nM

B41: Id_ii_S2_P3E.3_K3.2_C3.2_[C-2A]_H3.2_A3.1_F3.1_T3.2_[T9C]_[A10G] (ssRNA)
RNA: B5 RNA with U28A, A38C, A39G
Kd: 713 nM

B42: Id_ii_S2_P3E.3_K3.2_C3.2_[T-1G]_H3.2_A3.1_F3.1_T3.2_[T9C]_[A10C] (ssRNA)
RNA: B5 RNA with U28C, U29G, A38C, A39C
Kd: 863 nM

B43: Id_ii_S2_P3E.3_K3.2_C3.2_[C-2A]_[T-1C]_H3.2_A3.1_F3.1_T3.2_[T9A] (ssRNA)
RNA: B5 RNA with U28A, U29C
Kd: 290 nM

B44: Id_ii_S2_P3E.3_K3.2_C3.2_[T-1C]_H3.2_A3.1_F3.1_T3.2_[T9A] (ssRNA)
RNA: B5 RNA with U28C, U29C
Kd: 251 nM

B45: Id_ii_S2_P3E.3_K3.2_C3.2_[T-1C]_H3.2_A3.1_F3.1_T3.2_[T9A]_[A10T] (ssRNA)
RNA: B5 RNA with U28C, U29C, A39U
Kd: 93.1 nM

B46: Id_ii_S2_P3E.3_K3.2_C3.2_[T-1A]_H3.2_A3.1_F3.1_T3.2_[A10C] (ssRNA)
RNA: B5 RNA with U28C, U29A, A38U, A39C
Kd: 227 nM

B47: Id_ii_S2_P3E.3_K3.2_C3.2_[T-1A]_H3.2_A3.1_F3.1_T3.2_[T9C] (ssRNA)
RNA: B5 RNA with U28C, U29A, A38C
Kd: 198 nM

B48: Id_ii_S2_P3E.3_K3.2_C3.2_[C-2A]_[T-1G]_H3.2_A3.1_F3.1_T3.2_[T9A]_[A10C] (ssRNA)
RNA: B5 RNA with U28A, U29G, A39C
Kd: 1960 nM

B49: Id_ii_S2_P3E.3_K3.2_C3.2_[C-2A]_[T-1G]_H3.2_A3.1_F3.1_T3.2_[T9C]_[A10C] (ssRNA)
RNA: B5 RNA with U28A, U29G, A38C, A39C
Kd: 1900 nM

B50: Id_ii_S2_P3E.3_K3.2_C3.2_[C-2A]_H3.2_A3.1_F3.1_T3.2_[T9C]_[A10T] (ssRNA)
RNA: B5 RNA with U28A, A38C, A39U
Kd: 214 nM

B51: Id_ii_S2_P3E.3_K3.2_C3.2_[T-1C]_H3.2_A3.1_F3.1_T3.2_[T9C]_[A10T] (ssRNA)
RNA: B5 RNA with U28C, U29C, A38C, A39U
Kd: 120 nM

B52: Id_ii_S2_P3E.3_K3.2_C3.2_H3.2_A3.1_F3.1_T3.2_[T9A] (ssRNA)
RNA: B5 RNA with U28C
Kd: 401 nM

B53: Ib_S1_P5E.1_K5.1_C5.1_H5.1_[T1A]_A5.1_F5.1_[T9A]_T5.1 (ssRNA)
RNA: UCUCUUAGUAUUAUAAUCUCUU
Kd: 614 nM
